T1: recombinant WNV capsid mutant rC(S36A), N-terminal hexa-histidine tag, expressed in E. coli from pQE30, Q9Q6P4
T1 chain: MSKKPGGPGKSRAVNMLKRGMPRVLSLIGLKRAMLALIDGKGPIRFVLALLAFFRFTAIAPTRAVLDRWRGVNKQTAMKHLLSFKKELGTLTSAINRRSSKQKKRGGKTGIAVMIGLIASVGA

T2: recombinant WNV capsid protein with an N-terminal hexa-histidine tag, expressed in E. coli from pQE30, Q9Q6P4
T2 chain: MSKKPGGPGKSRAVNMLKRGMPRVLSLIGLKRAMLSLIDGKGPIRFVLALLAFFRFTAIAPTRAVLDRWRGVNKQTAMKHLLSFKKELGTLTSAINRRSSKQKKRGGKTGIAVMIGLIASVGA


Assays:
[1] = biological target: CKII-Pep, commercial CK2 substrate peptide
[2] = biological target: T1, recombinant WNV capsid mutant rC(S36A), …
[3] = biological target: T2, recombinant WNV capsid protein with an …

Protein | dot-blot kinase assay [1] | in vitro phosphorylation (CK2 kinase assay, autoradiography) [2] | in vitro phosphorylation (32P-ATP kinase assay, autoradiography) [3] | in vitro phosphorylation (kinase assay with a single recombinant subunit) [3]
recombinant CK2 (whole enzyme, Biomol) (protein) chain 1: MSGPVPSRARVYTDVNTHRPREYWDYESHVVEWGNQDDYQLVRKLGRGKYSEVFEAINITNNEKVVVKILKPVKKKKIKREIKILENLRGGPNIITLADIVKDPVSRTPALVFEHVNNTDFKQLYQTLTDYDIRFYMYEILKALDYCHSMGIMHRDVKPHNVMIDHEHRKLRLIDWGLAEFYHPGQEYNVRVASRYFKGPELLVDYQMYDYSLDMWSLGCMLASMIFRKEPFFHGHDNYDQLVRIAKVLGTEDLYDYIDKYNIELDPRFNDILGRHSRKRWERFVHSENQHLVSPEALDFLDKLLRYDHQSRLTAREAMEHPYFYTVVKDQARMGSSSMPGGSTPVSSANMMSGISSVPTPSPLGPLAGSPVIAAANPLGMPVPAAAGAQQ chain 2: not shown | Only Cp(30-48) and CK-II-Pep peptides reacted positively to CK2 assay | the phosphorylation signal was totally absent from C(S36A) while the wild rC still was labeled in the in vitro assay | purified fractions yielded was phosphorylated by CK2 | –
purified recombinant CK2α subunit protein (Biomol) (protein) MSGPVPSRARVYTDVNTHRPREYWDYESHVVEWGNQDDYQLVRKLGRGKYSEVFEAINITNNEKVVVKILKPVKKKKIKREIKILENLRGGPNIITLADIVKDPVSRTPALVFEHVNNTDFKQLYQTLTDYDIRFYMYEILKALDYCHSMGIMHRDVKPHNVMIDHEHRKLRLIDWGLAEFYHPGQEYNVRVASRYFKGPELLVDYQMYDYSLDMWSLGCMLASMIFRKEPFFHGHDNYDQLVRIAKVLGTEDLYDYIDKYNIELDPRFNDILGRHSRKRWERFVHSENQHLVSPEALDFLDKLLRYDHQSRLTAREAMEHPYFYTVVKDQARMGSSSMPGGSTPVSSANMMSGISSVPTPSPLGPLAGSPVIAAANPLGMPVPAAAGAQQ | – | – | – | Neither of the subunits was able to phosphorylate the protein by themselves
